Measurements reported in doi:10.1101/503680 (bioRxiv, 2018).

Molecular target: His6-KIF3A-motor (mouse, UniProt P28741 1-350)
Test: SPR

His6-KIF3A-motor, sequence (P28741 1-350): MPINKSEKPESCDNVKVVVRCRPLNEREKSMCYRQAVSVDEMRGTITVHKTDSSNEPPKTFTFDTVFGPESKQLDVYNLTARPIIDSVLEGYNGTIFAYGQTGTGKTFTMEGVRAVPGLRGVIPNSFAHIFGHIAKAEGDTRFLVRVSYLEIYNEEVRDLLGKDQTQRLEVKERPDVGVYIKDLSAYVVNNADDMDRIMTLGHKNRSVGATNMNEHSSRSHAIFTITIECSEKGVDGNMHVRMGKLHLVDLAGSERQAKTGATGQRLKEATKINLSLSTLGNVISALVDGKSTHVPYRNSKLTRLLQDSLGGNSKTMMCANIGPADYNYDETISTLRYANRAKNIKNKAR

- Kd: 48.4 nM
B1: GST-KIF3A-S689A-Tail (domain or fragment, mouse, UniProt P28741 598-701, looked up)
chain: IPQDYQEMIENYVHWNEDIGEWQLKCVAYTGNNMRKQTPVPDKKERDPFEVDLSHVYLAYTEESLRQSLMKLERPRTSKGKARPKMGRRKRAAKPETVIDSLLQ
